A value given as a limit tells only on which side of the number the result lay.

In the test the target is myelin basic protein, 32P-labeled on tyrosine residues.

Turning to “PTPL1 protein tyrosine phosphatase (from UniProt Q12923) (enzyme)”, the dephosphorylation (radioactivity released as inorganic phosphate, percentage of total input) was > 30%.

The record behind these values is patent US6066472.
